Test [1] addresses T1, his-tagged wild-type JMY (pET-JMY, bacterially expressed) (UniProt Q9QXM1 1-983).
T1 construct: also called His-JMY; purified recombinant JMY; not shown: His tag from pET28a
Nature of the test: summary of the biochemical binding assays.

Test [2] addresses T2, Flag-tagged full-length p300 (baculovirus expressed, on M2-anti-flag antibody agarose) (UniProt Q09472 2-2414, limits assumed).
T2 construct: mature; also called flag-p300; flag-tagged wild-type p300; not shown: Flag tag
The test can be described thus: biochemical binding assay with a panel of p300 derivatives.

For test [3], the target named is JMY1-119 (pCMV-HA-JMY1-119, in vitro translated) (UniProt Q9QXM1 1-119). The test can be described thus: in vitro translated JMY derivatives tested for binding to STRAP.
The target of test [4] is T3, JMY683-983 (pCMV-HA-JMY683-983, in vitro translated) (UniProt Q9QXM1 683-983).
T3 sequence (looked up): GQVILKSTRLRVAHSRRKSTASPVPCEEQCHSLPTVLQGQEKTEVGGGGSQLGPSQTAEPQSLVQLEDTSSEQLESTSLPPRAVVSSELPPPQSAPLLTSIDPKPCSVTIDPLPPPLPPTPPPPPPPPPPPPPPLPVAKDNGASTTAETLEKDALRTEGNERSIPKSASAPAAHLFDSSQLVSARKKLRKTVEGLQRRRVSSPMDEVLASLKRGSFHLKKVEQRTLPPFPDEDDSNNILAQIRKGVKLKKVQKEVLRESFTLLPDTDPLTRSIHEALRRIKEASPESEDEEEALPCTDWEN
The description is as above.

In test [5] the target is p300 (pCMV-p300, expressed in transfected cells) (UniProt Q09472 1-2414). The test can be described thus: co-immunoprecipitation from STRAP expressing U2OS cells treated with etoposide, against untreated cells.
The target in test [6] is T1, his-tagged wild-type JMY (pET-JMY, …). Nature of the test: in vitro translated STRAP derivative binding to his-tagged wild-type JMY.
Test [7] has the same target. The test can be described thus: biochemical binding assay with STRAP derivatives (summary in FIG. 7).
Test [8] deals with T2, Flag-tagged full-length p300 …. The description is as above.
The target is the same in test [9]. Nature of the test: in vitro translated STRAP derivative binding to flag-tagged wild-type p300 on anti-flag agarose.
Test [10] addresses T1, his-tagged wild-type JMY (pET-JMY, …). The test can be described thus: binding properties of the STRAP mutant derivative.
Test [11] deals with T2, Flag-tagged full-length p300 …. Nature of the test: binding properties of the STRAP mutant derivative.

This is an account of results in patent US7348407 (dated 2008).

T2 sequence (Q09472 2-2414 limits assumed): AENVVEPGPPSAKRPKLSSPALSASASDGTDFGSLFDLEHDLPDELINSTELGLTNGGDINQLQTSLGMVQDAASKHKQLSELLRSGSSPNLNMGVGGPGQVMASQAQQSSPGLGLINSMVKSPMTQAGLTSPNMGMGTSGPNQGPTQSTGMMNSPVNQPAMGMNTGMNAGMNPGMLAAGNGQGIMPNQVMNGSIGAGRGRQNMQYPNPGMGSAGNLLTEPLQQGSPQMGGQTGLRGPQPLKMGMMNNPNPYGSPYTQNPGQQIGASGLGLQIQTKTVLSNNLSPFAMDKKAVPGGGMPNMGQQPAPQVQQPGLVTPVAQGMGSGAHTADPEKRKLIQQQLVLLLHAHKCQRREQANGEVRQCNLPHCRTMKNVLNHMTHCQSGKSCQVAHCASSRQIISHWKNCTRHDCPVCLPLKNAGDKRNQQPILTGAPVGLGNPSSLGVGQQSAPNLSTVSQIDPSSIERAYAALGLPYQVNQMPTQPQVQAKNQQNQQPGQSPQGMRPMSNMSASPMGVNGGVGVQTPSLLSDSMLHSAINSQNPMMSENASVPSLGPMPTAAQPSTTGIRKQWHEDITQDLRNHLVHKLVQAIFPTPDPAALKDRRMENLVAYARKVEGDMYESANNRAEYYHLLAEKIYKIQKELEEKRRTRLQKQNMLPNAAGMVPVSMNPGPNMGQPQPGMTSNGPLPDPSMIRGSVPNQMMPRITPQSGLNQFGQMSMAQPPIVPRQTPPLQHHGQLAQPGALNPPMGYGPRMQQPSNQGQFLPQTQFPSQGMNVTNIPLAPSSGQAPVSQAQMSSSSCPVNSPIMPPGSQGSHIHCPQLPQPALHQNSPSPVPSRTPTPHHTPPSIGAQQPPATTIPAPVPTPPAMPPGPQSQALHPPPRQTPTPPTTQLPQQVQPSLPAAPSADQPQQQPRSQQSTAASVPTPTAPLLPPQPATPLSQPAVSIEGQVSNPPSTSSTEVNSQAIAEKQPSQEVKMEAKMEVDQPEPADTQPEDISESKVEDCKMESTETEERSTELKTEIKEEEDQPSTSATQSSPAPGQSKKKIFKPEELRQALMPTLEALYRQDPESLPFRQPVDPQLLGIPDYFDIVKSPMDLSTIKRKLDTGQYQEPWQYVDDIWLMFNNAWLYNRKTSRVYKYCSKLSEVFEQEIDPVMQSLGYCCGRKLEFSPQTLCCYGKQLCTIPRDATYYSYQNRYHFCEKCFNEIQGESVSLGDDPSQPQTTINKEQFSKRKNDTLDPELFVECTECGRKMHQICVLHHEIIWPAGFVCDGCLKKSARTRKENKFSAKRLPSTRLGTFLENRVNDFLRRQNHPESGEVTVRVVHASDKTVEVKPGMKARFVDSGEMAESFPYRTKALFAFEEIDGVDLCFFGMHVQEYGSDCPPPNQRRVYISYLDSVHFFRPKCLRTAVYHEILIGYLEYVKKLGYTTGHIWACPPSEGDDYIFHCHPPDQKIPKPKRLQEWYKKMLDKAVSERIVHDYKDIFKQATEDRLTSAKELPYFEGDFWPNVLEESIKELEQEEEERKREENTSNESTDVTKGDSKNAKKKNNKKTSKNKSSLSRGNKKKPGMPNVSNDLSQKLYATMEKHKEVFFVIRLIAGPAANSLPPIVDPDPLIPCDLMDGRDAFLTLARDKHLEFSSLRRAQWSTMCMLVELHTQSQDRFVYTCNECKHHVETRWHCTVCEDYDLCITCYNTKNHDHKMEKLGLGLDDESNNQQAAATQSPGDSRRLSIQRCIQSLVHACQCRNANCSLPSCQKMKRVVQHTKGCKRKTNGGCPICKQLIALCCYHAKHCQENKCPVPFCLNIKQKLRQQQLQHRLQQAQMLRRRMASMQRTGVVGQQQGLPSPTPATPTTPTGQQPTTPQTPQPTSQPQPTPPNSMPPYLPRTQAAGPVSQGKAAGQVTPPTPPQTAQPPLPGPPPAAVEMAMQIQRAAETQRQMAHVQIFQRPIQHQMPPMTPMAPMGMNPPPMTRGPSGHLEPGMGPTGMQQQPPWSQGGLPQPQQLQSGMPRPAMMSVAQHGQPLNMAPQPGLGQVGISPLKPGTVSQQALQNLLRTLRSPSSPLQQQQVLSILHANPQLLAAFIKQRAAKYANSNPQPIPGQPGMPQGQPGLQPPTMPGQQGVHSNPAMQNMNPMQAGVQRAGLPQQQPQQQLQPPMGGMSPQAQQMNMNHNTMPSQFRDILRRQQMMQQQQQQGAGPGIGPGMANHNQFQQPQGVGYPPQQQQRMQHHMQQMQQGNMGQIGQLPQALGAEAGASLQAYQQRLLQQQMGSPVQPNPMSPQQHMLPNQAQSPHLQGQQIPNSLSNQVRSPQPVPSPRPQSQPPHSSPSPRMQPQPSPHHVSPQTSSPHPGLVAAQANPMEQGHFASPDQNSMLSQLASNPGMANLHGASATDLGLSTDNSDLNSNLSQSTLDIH
Chain of p300 (pCMV-p300, expressed in transfected cells) (Q09472 whole entry): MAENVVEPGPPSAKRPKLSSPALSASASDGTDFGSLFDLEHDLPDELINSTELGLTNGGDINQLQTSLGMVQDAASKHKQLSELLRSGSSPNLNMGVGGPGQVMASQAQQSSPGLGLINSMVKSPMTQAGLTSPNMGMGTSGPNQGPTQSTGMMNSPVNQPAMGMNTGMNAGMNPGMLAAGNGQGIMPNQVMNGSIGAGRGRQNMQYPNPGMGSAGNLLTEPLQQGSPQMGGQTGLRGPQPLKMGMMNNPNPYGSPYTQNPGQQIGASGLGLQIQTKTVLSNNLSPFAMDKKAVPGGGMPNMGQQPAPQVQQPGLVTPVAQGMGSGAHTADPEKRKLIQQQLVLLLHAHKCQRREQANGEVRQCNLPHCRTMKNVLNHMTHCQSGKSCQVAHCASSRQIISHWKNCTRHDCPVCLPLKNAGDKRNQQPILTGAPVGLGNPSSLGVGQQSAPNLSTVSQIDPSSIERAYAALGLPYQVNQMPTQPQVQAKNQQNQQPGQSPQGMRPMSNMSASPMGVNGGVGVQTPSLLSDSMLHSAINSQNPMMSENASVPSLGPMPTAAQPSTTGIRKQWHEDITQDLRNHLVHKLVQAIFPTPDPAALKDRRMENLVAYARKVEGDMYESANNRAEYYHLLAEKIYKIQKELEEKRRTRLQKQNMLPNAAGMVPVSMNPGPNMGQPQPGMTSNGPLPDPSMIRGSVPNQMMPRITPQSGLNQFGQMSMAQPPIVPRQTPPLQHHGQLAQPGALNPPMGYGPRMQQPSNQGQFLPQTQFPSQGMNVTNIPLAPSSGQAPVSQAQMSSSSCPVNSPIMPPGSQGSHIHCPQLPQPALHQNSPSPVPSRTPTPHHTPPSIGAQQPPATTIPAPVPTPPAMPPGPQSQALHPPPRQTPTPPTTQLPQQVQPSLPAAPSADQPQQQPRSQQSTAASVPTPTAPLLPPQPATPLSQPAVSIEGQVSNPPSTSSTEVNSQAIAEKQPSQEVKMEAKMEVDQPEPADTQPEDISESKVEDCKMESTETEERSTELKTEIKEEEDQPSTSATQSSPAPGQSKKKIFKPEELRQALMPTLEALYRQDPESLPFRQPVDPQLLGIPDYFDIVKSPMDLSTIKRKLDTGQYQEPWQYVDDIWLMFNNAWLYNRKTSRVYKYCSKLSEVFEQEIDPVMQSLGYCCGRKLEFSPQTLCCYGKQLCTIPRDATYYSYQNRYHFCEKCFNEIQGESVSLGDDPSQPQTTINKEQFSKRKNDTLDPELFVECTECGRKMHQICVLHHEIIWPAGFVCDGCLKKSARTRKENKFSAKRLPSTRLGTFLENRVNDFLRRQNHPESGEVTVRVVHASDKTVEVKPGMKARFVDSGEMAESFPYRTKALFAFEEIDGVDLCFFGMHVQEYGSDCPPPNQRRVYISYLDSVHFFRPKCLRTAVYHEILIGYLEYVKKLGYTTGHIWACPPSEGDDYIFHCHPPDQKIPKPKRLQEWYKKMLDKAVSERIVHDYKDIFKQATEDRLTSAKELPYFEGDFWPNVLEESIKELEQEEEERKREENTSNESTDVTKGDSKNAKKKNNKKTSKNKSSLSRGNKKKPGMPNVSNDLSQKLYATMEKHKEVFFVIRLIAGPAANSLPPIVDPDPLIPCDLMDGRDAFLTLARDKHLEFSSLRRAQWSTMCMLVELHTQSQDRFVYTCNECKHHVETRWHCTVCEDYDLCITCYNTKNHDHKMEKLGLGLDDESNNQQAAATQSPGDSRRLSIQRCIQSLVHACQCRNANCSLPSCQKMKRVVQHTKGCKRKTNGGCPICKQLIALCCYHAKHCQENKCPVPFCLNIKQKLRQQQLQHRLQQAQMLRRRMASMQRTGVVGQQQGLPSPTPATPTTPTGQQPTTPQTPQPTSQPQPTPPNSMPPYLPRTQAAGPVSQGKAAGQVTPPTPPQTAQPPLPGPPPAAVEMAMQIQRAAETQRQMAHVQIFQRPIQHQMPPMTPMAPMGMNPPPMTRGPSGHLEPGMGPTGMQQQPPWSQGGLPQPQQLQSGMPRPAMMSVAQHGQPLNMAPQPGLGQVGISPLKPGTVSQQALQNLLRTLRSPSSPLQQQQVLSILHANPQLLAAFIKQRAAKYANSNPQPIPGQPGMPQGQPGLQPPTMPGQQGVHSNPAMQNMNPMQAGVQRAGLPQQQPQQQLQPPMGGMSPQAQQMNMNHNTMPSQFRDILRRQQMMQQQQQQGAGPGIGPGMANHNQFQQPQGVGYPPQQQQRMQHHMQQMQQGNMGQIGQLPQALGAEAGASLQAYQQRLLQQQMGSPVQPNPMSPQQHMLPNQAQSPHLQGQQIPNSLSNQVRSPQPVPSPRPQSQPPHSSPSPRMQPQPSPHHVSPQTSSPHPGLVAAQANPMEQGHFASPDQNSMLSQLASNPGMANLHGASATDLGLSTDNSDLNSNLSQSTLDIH

B1: STRAP (construct not stated for the experiment) (other)
chain: EAKHVLQKLQGLVDRLYCFRDSYFETHSVEDAGRKQQDVQEEMEKTLQQMEEVLGSAQVEAQALMLKGKALNVTPDYSPEAEVLLSKAVKLEPELVEAWNQLGEVYWKKGDVTSAHTCFSGALTHCKNKVSLQNLSMVLRQLQTDSGDEHSRHVMDSVRQAKLAVQMDVLDGRSWYILGNAYLSLYFNTGQNPKISQQALSAYAQAEKVDRKASSNPDLHLNRATLHKYEESYGEALEGFSQAAALDPAWPEPQQREQQLLEFLSRLTSLLESKGKTKPKKLQSMLGSLRPAHLGPCGDGRYQSASGQKMTLELKPLSTLQPGVNSGTVVLGKVVFSLTTEEKVPFTFGLVDSDGPCYAVMVYNVVQSWGVLIGDSVAIPEPNLRHHQIRHKGKDYSFSSVRVETPLLLVVNGKPQNSSSQASATVASRPQ
notes: also called 60,000 molecular weight STRAP polypeptide
For B1, the binding result in test [1], in test [2], in [3] and in [4] was “binds” throughout.

B2: JMY (pCMV-JMY, expressed in transfected cells) (other, UniProt Q9QXM1 1-983, looked up)
chain: MSFALEETLESDWVAVRPHVFDEREKHKFVFIVAWNEIEGKFAITCHNRTAQRQRSGSREQAGTPASDGSRGPGSPAARGRSEAAASATAALRSPGPRKSQAWAEGGSPRSARSLKGDPPRGPAGRGPESPLRSPARAKASPLRRSAESRDAIASATPVPPAPPVPPVSSVRVVSASGAVSEEIEVLEMVREDEAPQPLPDSEQPPSAAELESSAEECSWAGLFSFQDLRAVHQQLCSVNSQLEPCLPVFPEEPSGMWTVLFGGAPEMTEQEIDALCYQLQVYLGHGLDTCGWKILSQVLFTETDDPEEYYESLSELRQKGYEEVLQRARRRIQELLDKHKTIESMVELLDLYQMEDEAYSSLAEATTELYQYLLQPFRDMRELAMLRRQQIKISMENDYLGPRRIESLQKEDADWQRKAHMAVLSIQDLTVKYFEITAKAQKAVYDRMRADQKKFGKASWAAAAERMEKLQYAVSKETLQMMRAKEICLEQKKHALKEEMQSLQGGTEAIARLDQLESDYYDLQLQLYEVQFEILKCEELLLTAQLESIKRLISEKRDEVVYYDTYESMEAMLEKEEMAASVHAQREELQKLQQKARQLEARRGRVSAKKAYLRNKKEICIAKHHEKFQQRFQSEDEYRAHHTIQIKRDKLHDEEERKSAWVSQERQRTLDRLRTFKQRYPGQVILKSTRLRVAHSRRKSTASPVPCEEQCHSLPTVLQGQEKTEVGGGGSQLGPSQTAEPQSLVQLEDTSSEQLESTSLPPRAVVSSELPPPQSAPLLTSIDPKPCSVTIDPLPPPLPPTPPPPPPPPPPPPPPLPVAKDNGASTTAETLEKDALRTEGNERSIPKSASAPAAHLFDSSQLVSARKKLRKTVEGLQRRRVSSPMDEVLASLKRGSFHLKKVEQRTLPPFPDEDDSNNILAQIRKGVKLKKVQKEVLRESFTLLPDTDPLTRSIHEALRRIKEASPESEDEEEALPCTDWEN
notes: also called JMY co-factor; wild-type JMY
With B2, the “fold increase in the level of co-immunoprecipitated JMY with p300” value in test [5] is roughly 10 fold.

B3: STRAP123-205 (other, not shown: small tags and cut ends)
chain: HTCFSGALTHCKNKVSLQNLSMVLRQLQTDSGDEHSRHVMDSVRQAKLAVQMDVLDGRSWYILGNAYLSLYFNTGQNPKISQQ
notes: In vitro translated
B3: the binding result in [6] was “binds”.

B4: STRAP8-123 (other)
chain: EAKHVLQKLQGLVDRLYCFRDSYFETHSVEDAGRKQQDVQEEMEKTLQQMEEVLGSAQVEAQALMLKGKALNVTPDYSPEAEVLLSKAVKLEPELVEAWNQLGEVYWKKGDVTSAH
notes: A pET form also exists; not shown: HA tag (pCMV-HA, in vitro translated) or His tag (pET28C, purified)
Consider B4, for which the figures for the binding result in test [7] and in test [8] were “binds” and “no binding”, respectively.

B5: STRAP206-438 (other, not shown: small tags and cut ends)
chain: ALSAYAQAEKVDRKASSNPDLHLNRATLHKYEESYGEALEGFSQAAALDPAWPEPQQREQQLLEFLSRLTSLLESKGKTKPKKLQSMLGSLRPAHLGPCGDGRYQSASGQKMTLELKPLSTLQPGVNSGTVVLGKVVFSLTTEEKVPFTFGLVDSDGPCYAVMVYNVVQSWGVLIGDSVAIPEPNLRHHQIRHKGKDYSFSSVRVETPLLLVVNGKPQNSSSQASATVASRPQ
notes: In vitro translated
On to B5, for which the binding result in [6] and in [9] was “binds” throughout.

B6: STRAP8-205 (other, not shown: small tags and cut ends)
chain: EAKHVLQKLQGLVDRLYCFRDSYFETHSVEDAGRKQQDVQEEMEKTLQQMEEVLGSAQVEAQALMLKGKALNVTPDYSPEAEVLLSKAVKLEPELVEAWNQLGEVYWKKGDVTSAHTCFSGALTHCKNKVSLQNLSMVLRQLQTDSGDEHSRHVMDSVRQAKLAVQMDVLDGRSWYILGNAYLSLYFNTGQNPKISQQ
On to B6, for which the binding result in [10] was “binds”; in [11], “no binding”.
